In the supplement of paper PMC9112550, “Optimization of the antimicrobial peptide Bac7 by deep mutational scanning” (BMC Biology, 2022):

Test system: Escherichia coli TOP10
Assay: shrunken log2 fold change of peptide-encoding DNA abundance (4.5 h post-induction vs induction); higher = less antimicrobial activity (less host growth inhibition)
Conditions: time post-induction: 4.5 h; library: site-saturation at positions 5, 18, 19, 20
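Further: peptides expressed intracellularly from a pBAD plasmid library in pooled LB shake-flask culture, induced with 0.3% L-arabinose, DNA abundance read by NGS, three biological replicates, DESeq2 with apeglm shrinkage.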

| Sequence | shrunken log2 fold change |
| --- | --- |
| RRIRQRPPRLPRPRPRPPPFPRP | 0.259 |
| RRIRQRPPRLPRPRPRPWLKPRP | 0.0706 |
| RRIRFRPPRLPRPRPRPCEHPRP | -0.00783 |
| RRIRHRPPRLPRPRPRPLYGPRP | -0.214 |
| RRIRHRPPRLPRPRPRPIDIPRP | -0.326 |
| RRIRPRPPRLPRPRPRPLKGPRP | 0.045 |
| RRIRRRPPRLPRPRPRPLTNPRP | -0.16 |
| RRIRRRPPRLPRPRPRPVQWPRP | 0.143 |
| RRIRERPPRLPRPRPRPGKSPRP | -0.00212 |
| RRIRYRPPRLPRPRPRPRSHPRP | -0.267 |
| RRIRDRPPRLPRPRPRPYHIPRP | -0.107 |
| RRIRSRPPRLPRPRPRPKTVPRP | 0.0369 |
| RRIRMRPPRLPRPRPRPYICPRP | -0.201 |
| RRIRQRPPRLPRPRPRPHHGPRP | -0.042 |
| RRIRMRPPRLPRPRPRPDQFPRP | -0.00541 |
| RRIRERPPRLPRPRPRPPEDPRP | 2.12 |
| RRIRFRPPRLPRPRPRPRDYPRP | -0.2 |
| RRIRMRPPRLPRPRPRPVEAPRP | 0.396 |
| RRIRWRPPRLPRPRPRPGCAPRP | 0.948 |
| RRIRCRPPRLPRPRPRPTVIPRP | -0.907 |
| RRIRTRPPRLPRPRPRPQMDPRP | -0.195 |
| RRIRRRPPRLPRPRPRPGDCPRP | 0.336 |
| RRIRKRPPRLPRPRPRPVLHPRP | 0.484 |
| RRIRERPPRLPRPRPRPRTNPRP | 0.00565 |
| RRIRARPPRLPRPRPRPWDCPRP | 0.0143 |

| Sequence | shrunken log2 fold change |
| --- | --- |
| RRIRIRPPRLPRPRPRPKTQPRP | -0.0269 |
| RRIRWRPPRLPRPRPRPCIYPRP | -0.162 |
| RRIRMRPPRLPRPRPRPPMIPRP | -0.0431 |
| RRIRLRPPRLPRPRPRPMHWPRP | 0.0928 |
| RRIRLRPPRLPRPRPRPSHIPRP | -0.877 |
| RRIRFRPPRLPRPRPRPVKKPRP | 0.166 |
| RRIRARPPRLPRPRPRPPYYPRP | 0.0635 |
| RRIRTRPPRLPRPRPRPWNFPRP | -0.0511 |
| RRIRSRPPRLPRPRPRPWVIPRP | -0.201 |
| RRIRCRPPRLPRPRPRPWIGPRP | -0.775 |
| RRIRIRPPRLPRPRPRPGTPPRP | -0.0727 |
| RRIRLRPPRLPRPRPRPHDLPRP | -0.308 |
| RRIRYRPPRLPRPRPRPQNMPRP | -1.33 |
| RRIRHRPPRLPRPRPRPEICPRP | -0.00961 |
| RRIRWRPPRLPRPRPRPVAKPRP | 0.404 |
| RRIRSRPPRLPRPRPRPQEDPRP | -0.244 |
| RRIRDRPPRLPRPRPRPHRAPRP | -0.0299 |
| RRIRARPPRLPRPRPRPECIPRP | 0.781 |
| RRIRQRPPRLPRPRPRPFSCPRP | -0.00804 |
| RRIRARPPRLPRPRPRPRRTPRP | 0.577 |
| RRIRSRPPRLPRPRPRPKDLPRP | 0.184 |
| RRIRARPPRLPRPRPRPLMTPRP | 0.474 |
| RRIRCRPPRLPRPRPRPCRCPRP | -0.389 |
| RRIRHRPPRLPRPRPRPTMCPRP | -0.00396 |
| RRIRPRPPRLPRPRPRPHLLPRP | -0.0988 |

| Sequence | shrunken log2 fold change |
| --- | --- |
| RRIRHRPPRLPRPRPRPYKWPRP | -0.0842 |
| RRIRCRPPRLPRPRPRPNSHPRP | -0.556 |
| RRIRLRPPRLPRPRPRPRACPRP | 0.223 |
| RRIRIRPPRLPRPRPRPECRPRP | 0.0513 |
| RRIRERPPRLPRPRPRPVNYPRP | -0.0115 |
| RRIRVRPPRLPRPRPRPSEGPRP | -0.116 |
| RRIRDRPPRLPRPRPRPKQQPRP | -0.053 |
| RRIRQRPPRLPRPRPRPTDHPRP | 0.0174 |
| RRIRRRPPRLPRPRPRPHVFPRP | 2.42 |
| RRIRCRPPRLPRPRPRPEELPRP | 0.249 |
| RRIRTRPPRLPRPRPRPIDFPRP | 0.0107 |
| RRIRERPPRLPRPRPRPDTRPRP | 0.0127 |
| RRIRGRPPRLPRPRPRPEAFPRP | 1.86 |
| RRIRLRPPRLPRPRPRPFTIPRP | -0.174 |
| RRIRDRPPRLPRPRPRPELLPRP | 0.011 |
| RRIRERPPRLPRPRPRPCSVPRP | -0.0625 |
| RRIRLRPPRLPRPRPRPHKSPRP | -0.399 |
| RRIRYRPPRLPRPRPRPNQNPRP | -0.967 |
| RRIRKRPPRLPRPRPRPDCHPRP | 0.233 |
| RRIRDRPPRLPRPRPRPRSHPRP | -0.0765 |
| RRIRARPPRLPRPRPRPCPTPRP | 0.088 |
| RRIRQRPPRLPRPRPRPWFVPRP | -0.423 |
| RRIRRRPPRLPRPRPRPPNNPRP | 0.177 |
| RRIRLRPPRLPRPRPRPQDKPRP | -0.431 |
| RRIRERPPRLPRPRPRPRFTPRP | 1.87 |

| Sequence | shrunken log2 fold change |
| --- | --- |
| RRIRRRPPRLPRPRPRPFKPPRP | 0.174 |
| RRIRDRPPRLPRPRPRPLTSPRP | 0.109 |
| RRIRVRPPRLPRPRPRPIYPPRP | -0.413 |
| RRIRLRPPRLPRPRPRPCFMPRP | -0.311 |
| RRIRRRPPRLPRPRPRPFTFPRP | -0.247 |
| RRIRSRPPRLPRPRPRPTFMPRP | -0.335 |
| RRIRRRPPRLPRPRPRPWIIPRP | -0.021 |
| RRIRCRPPRLPRPRPRPPRCPRP | 1.9 |
| RRIRDRPPRLPRPRPRPHCHPRP | -0.276 |
| RRIRDRPPRLPRPRPRPQDQPRP | -0.144 |
| RRIRIRPPRLPRPRPRPSDPPRP | -0.136 |
| RRIRYRPPRLPRPRPRPNVKPRP | -0.386 |
| RRIRERPPRLPRPRPRPRIDPRP | -0.0634 |
| RRIRPRPPRLPRPRPRPCTQPRP | -0.106 |
| RRIRKRPPRLPRPRPRPYGEPRP | 0.0585 |
| RRIRKRPPRLPRPRPRPCARPRP | -0.00716 |
| RRIRHRPPRLPRPRPRPEQHPRP | 1.73 |
| RRIRERPPRLPRPRPRPACDPRP | 0.0619 |
| RRIRIRPPRLPRPRPRPEMVPRP | -0.14 |
| RRIRTRPPRLPRPRPRPYEIPRP | -0.453 |
| RRIRARPPRLPRPRPRPTKQPRP | -0.148 |
| RRIRKRPPRLPRPRPRPTYMPRP | -0.121 |
| RRIRVRPPRLPRPRPRPKWWPRP | 0.0767 |
| RRIRHRPPRLPRPRPRPRCTPRP | 0.0847 |
| RRIRLRPPRLPRPRPRPMEQPRP | 0.168 |

| Sequence | shrunken log2 fold change |
| --- | --- |
| RRIRDRPPRLPRPRPRPKDAPRP | -0.018 |
| RRIRLRPPRLPRPRPRPACFPRP | 0.259 |
| RRIRLRPPRLPRPRPRPPPLPRP | 1.12 |
| RRIRVRPPRLPRPRPRPNAVPRP | -0.223 |
| RRIRCRPPRLPRPRPRPISFPRP | -0.113 |
| RRIRNRPPRLPRPRPRPMINPRP | -0.346 |
| RRIRHRPPRLPRPRPRPVMQPRP | -0.01 |
| RRIRQRPPRLPRPRPRPKCRPRP | -0.0264 |
| RRIRFRPPRLPRPRPRPQSCPRP | -0.0102 |
| RRIRGRPPRLPRPRPRPHFLPRP | 1.03 |
| RRIRGRPPRLPRPRPRPTRRPRP | 0.663 |
| RRIRIRPPRLPRPRPRPPKEPRP | -0.0998 |
| RRIRWRPPRLPRPRPRPCHPPRP | -0.11 |
| RRIRNRPPRLPRPRPRPLGPPRP | 0.0324 |
| RRIRARPPRLPRPRPRPWPWPRP | 0.261 |
| RRIRCRPPRLPRPRPRPYYLPRP | -0.38 |
| RRIRDRPPRLPRPRPRPNMCPRP | -0.0431 |
| RRIRKRPPRLPRPRPRPSVSPRP | 0.172 |
| RRIRFRPPRLPRPRPRPDGWPRP | 0.13 |
| RRIRTRPPRLPRPRPRPQIWPRP | 0.0741 |
| RRIRLRPPRLPRPRPRPQSQPRP | -0.179 |
| RRIRNRPPRLPRPRPRPTNVPRP | 0.0366 |
| RRIRNRPPRLPRPRPRPIFSPRP | 0.0636 |
| RRIRGRPPRLPRPRPRPDEVPRP | 0.885 |
| RRIRGRPPRLPRPRPRPYKIPRP | -0.618 |

| Sequence | shrunken log2 fold change |
| --- | --- |
| RRIRMRPPRLPRPRPRPWDCPRP | 0.00902 |
| RRIRARPPRLPRPRPRPVTAPRP | 0.654 |
| RRIRWRPPRLPRPRPRPFWCPRP | 0.193 |
| RRIRGRPPRLPRPRPRPAYIPRP | -0.156 |
| RRIRTRPPRLPRPRPRPFDWPRP | 0.0371 |
| RRIRMRPPRLPRPRPRPVQFPRP | 0.276 |
| RRIRDRPPRLPRPRPRPTGGPRP | 0.166 |
| RRIRNRPPRLPRPRPRPNGEPRP | 0.0257 |
| RRIRFRPPRLPRPRPRPTSQPRP | -0.0191 |
| RRIRYRPPRLPRPRPRPYYAPRP | -0.634 |
| RRIRCRPPRLPRPRPRPGCQPRP | 0.00667 |
| RRIRIRPPRLPRPRPRPAHTPRP | -0.588 |
| RRIRVRPPRLPRPRPRPQRGPRP | 0.198 |
| RRIRMRPPRLPRPRPRPAVNPRP | 0.0731 |
| RRIRIRPPRLPRPRPRPQIAPRP | -0.0185 |
| RRIRTRPPRLPRPRPRPDEGPRP | -0.0183 |
| RRIRIRPPRLPRPRPRPMNRPRP | -0.108 |
| RRIRPRPPRLPRPRPRPVVTPRP | -0.207 |
| RRIRERPPRLPRPRPRPYPEPRP | -0.918 |
| RRIRQRPPRLPRPRPRPNPHPRP | 0.121 |
| RRIRARPPRLPRPRPRPTWYPRP | -0.00985 |
| RRIRPRPPRLPRPRPRPKPFPRP | 0.129 |
| RRIRIRPPRLPRPRPRPWVLPRP | -0.142 |
| RRIRQRPPRLPRPRPRPGVLPRP | 0.0476 |
| RRIRKRPPRLPRPRPRPAWFPRP | 0.0729 |
